This is an account of results in patent US20250262297A1, “ALLERGY ANTIGEN AND EPITOPE THEREOF” (HOYU CO., LTD., priority 2017, published 2025).

The test relates to IgE antibodies from soybean-allergic patients. The test is described as follows: Immunoblotting of two-dimensional electrophoresis pattern of soybean proteins with patient serum. The class given is binding, human. Particulars: spot in 2D electrophoresis gel of soybean proteins; patient serum compared with healthy subject serum. From the text:
Transfer to membrane was done using the following transfer system and transfer buffer. • Transfer system: XCell SureLock Mini-Cell and XCell II Blot Module (produced by Life Technologies) • Transfer buffer: NuPAGE Transfer Buffer (X20) (produced by Life Technologies), used in a form diluted 20-fold with milliQ water.
To be specific, proteins in the two-dimensional electrophoresis gels were transferred to a membrane (PVDF membrane) according to the following procedure. • (1) The PVDF membrane was immersed in 100% methanol followed by milliQ water, and then moved into the transfer buffer to hydrophilize the PVDF membrane. • (2) After sponge, filter paper, the gels treated by second-dimensional SDS-PAGE, the hydrophilized PVDF membrane, filter paper, and sponge were put in place in this order, the transfer system was energized at a constant voltage of 30 V for one hour.
Immunoblotting of the membrane was carried out using, as a primary antibody, a serum sample from a patient with a soybean allergy or a serum sample from a healthy subject.
Immunoblotting of the membrane was carried out according to the following procedure. • (1) The transferred membrane was shaken in a 5% skim milk/PBST solution (a PBS buffer containing 0.3% Tween 20 nonionic surfactant) at room temperature for one hour. • (2) The membrane was left to stand in a solution of 3% primary antibody serum in 5% skim milk/PBST at room temperature for one hour. • (3) The membrane was washed with a PBST solution (5 min.×3 times). • (4) The membrane was left to stand in a 1:2500 dilution of the secondary antibody, anti-human IgE-HRP (horseradish peroxidase), with a 3% skim milk/PBST solution at room temperature for one hour. • (5) The membrane was washed with a PBST solution (5 min.×3 times). • (6) The membrane was left to stand in Pierce Western Blotting Substrate Plus (produced by Thermo Fisher Scientific) for 5 minutes.
The membrane obtained through the foregoing series of treatments was subjected to fluorescent image scanning on Typhoon 9400 (produced by GE).
The immunoblots obtained with the serum from the soybean-allergic patient were compared with those obtained with the control serum from the healthy subject.

B1: 51 kDa seed maturation protein precursor (protein)
chain: MASKVVSVLVIAMMLFAMNCNCTSVGHMPSTKEEGHDFQESKAKTTQTANKAMETGKEGQEAAESWTEWAKEKLSEGLGFKHDQESKESTTNKVSDYATDTAQKSKDYATDTAQKSKDYAGDAAQKSKDYAGDAAQKTKDYASDTAQTSKDYAGDAAQKSKGYVGDAAQKTKEYVGDAAQKTKDYATDAAQKTKDYATQKTKDYASDATDAAKKTKDYAAQKTKDYASEASDVAQNTKDYAAQKTKDYASGGAQKTKDYASGGAQKTKDYASDAAQKTKDYASDGAQKSKEYAGDVALNAKDYAQKSKDYAGDAAQNVKDYASDAVQKRKEYSGDASHKSKEASDYASETAKKTKDYVGDAAQRSKGAAEYASDAAQRTKEYAGDATKRSKEASNDHANDMAQKTKDYASDTAQRTKEKLQDIASEAGQYSAEKAREMKDAAAEKASDIAKAAKQKSQEVKEKLGGQHRDAEL
modifications: Glycine max
notes: spot also identified as Lea protein precursor
With B1, the “specific binding to IgE antibodies from soybean-allergic patients” value (“specific binding to IgE antibodies” for short) was “specific binding”.

B2: superoxide dismutase [Fe], chloroplastic isoform X1 (protein)
chain: MASLGGLQNVSGINFLIKEKGCCMLQGPKVNAKFELKPPPYPLNGLEPVMSQQTLEFHWGKHHKTYVENLKKQVVGTELDGKSLEEIIVTSYNKGDILPAFNNAAQVWNHDFFWECMKPGGGGKPSGELLELIERDFGSFVKFLDEFKAAAATQFGSGWAWLAYRARKFDGENVANPPSPDEDNKLVVLKSPNAVNPLVWGGYYPLLTIDVWEHAYYLDFQNRRPDYISVFMDKLVSWDAVSSRLEQAKALITSA
modifications: Glycine max
notes: spot also identified as iron-superoxide dismutase
For the molecule B2, the “specific binding to IgE antibodies” value is “specific binding”.

B3: alpha-1,4 glucan phosphorylase L isozyme, chloroplastic/amyloplastic (protein)
chain: MASSSTTMRFSAASTGAAAALPRRSSVAGFIGVAARSSAKSRLRFIGRNANLSLRMRRMSSFSVVKCVSGSEAKVQDTVAKQQEATTSLSSFTPDASSIASSIKYHAEFTPLFSPENFDLPQAFLATAQSVRDSLIINWNATYDYYEKLNVKQAYYLSMEFLQGRALLNAIGNLELTGPYAEALSKLGHKLENVAYQEPDAALGNGGLGRLASCFLDSLATLNYPAWGYGLRYKYGLFKQRITKDGQEEVAEDWLEMGNPWEIIRNDVSYPVKFYGKVVSGSDGKKHWIGGEDIKAVAHDVPIPGYKTKTTINLRLWSTKAASEEFDLSAFNAGRHTEASEALANAEKICYILYPGDEPIEGKILRLKQQYTLCSASLQDIIARFERRSGANVNWEEFPEKVAVQMNDTHPTLCIPELMRILIDVKGLNWKDAWNITQRTVAYTNHTVLPEALEKWSLDLMQKLLPRHIEIIEMIDEELVRTIIAEYGTENSDLLEKKLKEMRILENVELTAEFADILVKSKEAIDIPSEELQSSEQAEAEDEKDDDEVEAVAKKNGTDESSIEDEKEELPEPVPEPPKLVRMANLCVVGGHAVNGVAEIHSEIVKDDVFNAFYKLWPEKFQNKTNGVTPRRWIRFCNPDLSKIITEWIGTEDWVLNTGKLAELRKFVDNEDLQVQWREAKRSNKVKVAAFIREKTGYSVSPDAMFDIQVKRIHEYKRQLMNIFGIVYRYKKMKEMSAAEREANFVPRVCIFGGKAFATYVQAKRIVKFITDVGATVNHDPEIGDLLKVVFVPDYNVSVAEMLIPASELSQHISTAGMEASGTSNMKFAMNGCILIGTLDGANVEIREEVGADNFFLFGAKAHEIAGLRKERAEGKFVPDPRFEEVKEFVRSGIFGSYNYDELMGSLEGNEGFGRADYFLVGKDFPSYIECQEKVDEAYRDQTKWTRMSILNTAGSYKFSSDRTIHEYAREIWNIEPVQLP
Regarding B3, the “specific binding to IgE antibodies” value is on record as “specific binding”.

B4: aconitate hydratase 1 (protein)
chain: MATENPFNSILTTLEKPGGAGEFGKYFSLPALNDRRIDRLPYSVRILLESAIRNCDEFQVKSNDVEKIIDWENTSPKLVEIPFKPARVLLQDFTGVPAVVDLACMRDAMNKLGGDSNKINPLVPVDLVIDHSVQVDVARSENAVQANMELEFQRNKERFGFLKWGSNAFNNMLVVPPGSGIVHQVNLEYLGRVVFNTNGVLYPDSVVGTDSHTTMIDGLGVAGWGVGGIEAEAAMLGQPMSMVLPGVVGFKLLGKLRDGVTATDLVLTVTQMLRKHGVVGKFVEFYGEGMSELSLADRATIANMSPEYGATMGFFPVDHVTLQYLRLTGRSDETVSMIESYLRANKMFVDYSEPQVERVYSSYLELNLEDVEPCVSGPKRPHDRVPLREMKVDWHACLNNKVGFKGFAVPKESQNKVAEFTFQGTPAHLRHGDVVIAAITSCTNTSNPSVMLGAALVAKKACELGLQVKPWIKTSLAPGSGVVTKYLQRSGLQKYLNELGFNIVGYGCTTCIGNSGDINEAVASAITENDIVAAAVLSGNRNFEGRVHPLTRANYLASPPLVVAYALAGTVDIDFDTEPIGIGKDGTKIFFRDIWPSSEEIANVVQSSVLPAMFRDTYNAITQGNPMWNNLSVPTGTLYAWDPTSTYIHEPPYFRDMSMSPPGSHGVKDAYCLLNFGDSITTDHISPAGSIHKDSPAARYLIERGVDRRDFNSYGSRRGNDEVMARGTFANIRIVNKFLNGEVGPKTIHIPSGEKLSVFDAAEKYKSEGHDMIILAGAEYGSGSSRDWAAKGPMLLGVKAVIAKSFERIHRSNLVGMGIIPLCFKPGDDADSLGLTGHERYTIDLPSNVNEIRPGQDVTVVTDAGKSFVSTLRFDTEVELAYFNHGGILQYVIRNMVNAKH
modifications: Glycine max
As to B4, the “specific binding to IgE antibodies” value is “specific binding”.

B5: triosephosphate isomerase isoform X1 (protein)
chain: MGRKFFVGGNWKCNGTTEEVKKIVTTLNEAKVPGEDVVEVVVSPPFVFLPFVKSLLRPDFHVSAQNCWVRKGGAYTGEVSAEMLVNLGIPWVIIGHSERRQLLNESNEFVGDKVAYALQQGLKVIACIGETLEQREAGTTTAVVAEQTKAIAAKISNWDNVVLAYEPVWAIGTGKVATPAQAQEVHADLRKWVHDNVSAEVAASVRIIYGGSVNGGNCKELAAQPDVDGFLVGGASLKAEFVDIINAATVKKN
modifications: Glycine max
notes: spot also identified as triosephosphate isomerase, cytosolic
For B5, the “specific binding to IgE antibodies” value is given as “specific binding”.

B6: transketolase, chloroplastic (protein)
chain: MASSTSSISLSQALLRPTTTSLPSSSSSLRLTPTLRPTPPALSLRRRLTTSIRAAASVKTVEKATADAALVEKSVNTIRFLAIDAVEKANSGHPGLPMGCAPMGHVLYDETMKYNPKNPFWFNRDRFVLSAGHGCMLQYALLHLAGFDSVKEEDLREFRQWGSRTPGHPENFETPGIEVTTGPLGQGIANAVGLALAEKHLAARYNKPDNEIVDHYTYAILGDGCQMEGIANEACSLAGHWGLGKLIAFYDDNHISIDGNTEIAFTESVDSRFEGLGWHVIWVKNGNNGYDDIRAAIKEAKAVKDKPTLIKVTTTIGYGSPNKANSYSVHGSALGAKEVDATRQNLGWSHEPFHVPEDVKKHWSRHTPEGAALEAEWNAKFAEYEKKYKEEAAELKSIINGEFPAGWEKALPTYTPESPADATRNLSQTNLNALAKVLPGLLGGSADLASSNMTLLKMFGDFQKDTPAERNVRFGVREHGMGAICNGIALHSPGLIPYCATFFVFTDYMRGAIRLSALSEAGVIYVMTHDSIGLGEDGPTHQPIEHLASFRAMPNILMLRPADGNETAGAYKVAVLNRKRPSILALSRQKLPQLPGTSIEGVEKGGYTISDNSTGNKPDVILIGTGSELEIAAKAADDLRKEGKAVRVVSLVSWELFDEQSEAYKESVFPAAVSARVSIEAGSTFGWEKIVGAKGKAIGIDRFGASAPAGRIYKEFGITKEAVVAAAKELI
Regarding B6, the “specific binding to IgE antibodies” value was “specific binding”.
